Four molecules from patent publication US20090169552A1 (FRED HUTCHINSON CANCER RESEARCH CENTER, published 2009) can be followed below.

To fix the notation:
B3: MICA tetramer (recombinant MICA*001, residues 1-276, produced in transfected 293T cells, biotinylated and conjugated with PE-streptavidin) (ligand)
chain: EPHSLRYNLTVLSWDGSVQSGFLTEVHLDGQPFLRCDRQKCRAKPQGQWAEDVLGNKTWDRETRDLTGNGKDLRMTLAHIKDQKEGLHSLQEIRVCEIHEDNSTRSSQHFYYDGELFLSQNLETKEWTMPQSSRAQTLAMNVRNFLKEDAMKTKTHYHAMHADCLQELRRYLKSGVVLRRTVPPMVNVTRSEASEGNITVTCRASGFYPWNITLSWRQDGVSLSHDTQQWGDVLPDGNGTYQTWVATRICQGEEQRFTCYMEHSGNHSTHPVPSGK
modifications: glycosylated (secreted by 293T cells); BirA enzymatic biotinylation, conjugated with phycoerythrin (PE)-streptavidin
notes: Residues 1-276 probably count on the mature protein; also called MICA tetramers; PE-MICA tetramer

Data set [1] has as its target B3. The data set is described as follows: flow cytometry, tetramer staining of NKL cells. From the text:
Early studies of NKG2D interactions with its ligands utilized randomly oligomerized recombinant MICA (rMICA) or ULBP family ligands produced as immunoglobulin fusion proteins, all of which bound exclusively to NKG2D expressing lymphocytes (Bauer et al., 1999; Cosman et al., 2001). Testing MICA and ULBP2 tetramers, the inventors confirmed that these high avidity reagents stained the NKL NK cell line and that binding was entirely accounted for by NKG2D (FIG. 1A). However, in the course of screening ˜40 cell lines by flow cytometry, the inventors observed that MICA, but not ULBP2, tetramers stained cell types lacking NKG2D. The highest fluorescence intensities were recorded with U266 myeloma cells and all of 10 epithelial tumor lines tested and correlated with relatively large amounts of cell surface MICA. Only monocytic U937 cells were identified as negative for tetramer binding (FIG. 1A). The MICA tetramers were prepared using glycosylated protein secreted by transfected 293T cells. However, tetramer binding was not reduced after cleavage of cell surface polypeptide-linked carbohydrates but was inhibited in the presence of unglycosylated rMICA (FIG. 1A).
(In general: Flow cytometry measures light scatter and fluorescence of single cells or particles in a stream.)

For data set [2], the target named is T1, Siderocalin, expressed in bacteria, P80188.
T1 chain: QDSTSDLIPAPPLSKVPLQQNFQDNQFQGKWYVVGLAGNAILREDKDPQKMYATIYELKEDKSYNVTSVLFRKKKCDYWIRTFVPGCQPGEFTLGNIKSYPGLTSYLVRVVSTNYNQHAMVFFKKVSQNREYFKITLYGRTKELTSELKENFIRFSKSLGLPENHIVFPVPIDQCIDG

Data set [3] deals with T2, ERp5 (endoplasmic reticulum protein 5) on the cell surface (Homo sapiens (Human), UniProt Q15084 20-440).
T2 construct: Also stands for the native 50 kD ERp5 solubilised from U266 outer cell membranes in the MICA bead purification; also called surface ERp5; disulfide isomerase-related protein P5
T2 sequence: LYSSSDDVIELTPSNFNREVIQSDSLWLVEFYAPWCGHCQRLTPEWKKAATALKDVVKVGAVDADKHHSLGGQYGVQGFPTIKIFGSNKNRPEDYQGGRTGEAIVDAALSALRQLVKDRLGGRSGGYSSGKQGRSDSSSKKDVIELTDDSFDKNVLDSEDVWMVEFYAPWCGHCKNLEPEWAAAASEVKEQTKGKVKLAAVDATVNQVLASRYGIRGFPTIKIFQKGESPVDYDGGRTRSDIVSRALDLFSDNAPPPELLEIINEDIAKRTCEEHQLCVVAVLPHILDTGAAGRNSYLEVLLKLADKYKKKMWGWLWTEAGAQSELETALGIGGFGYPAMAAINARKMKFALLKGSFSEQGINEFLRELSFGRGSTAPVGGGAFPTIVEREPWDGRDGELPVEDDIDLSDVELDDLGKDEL
Nature of the data set: flow cytometry of freshly isolated tumor cells.

In data set [4] the target is T3, C39S mutant of ERp5 fragment 1-118 (Homo sapiens (Human), UniProt Q15084 20-137, C39S).
T3 construct: Position 39 counts on the mature protein; not shown: N-terminal hexahistidine tract
T3 sequence: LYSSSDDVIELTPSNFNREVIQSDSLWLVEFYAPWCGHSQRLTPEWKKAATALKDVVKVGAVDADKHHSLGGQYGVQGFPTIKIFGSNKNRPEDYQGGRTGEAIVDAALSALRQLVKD
Nature of the data set: purified proteins mixed, non-reducing SDS-PAGE. From the text:
ERp5 activity assays. Ectodomain-only MICA, Siderocalin, and CD94-NKG2A were expressed in bacteria and purified as described (Li et al., 2001). […] All ERp5 sequences were fused to N-terminal hexahistidine tracts and included a C-terminal stop codon to prevent expression of the adjacent hexahistidine in pET22(b). Recombinant proteins were purified by metal affinity (BD Talon, Clontech) and size exclusion chromatography (Superdex 200, Pharmacia).

B1: NKG2D on NKL NK cells (receptor, human, UniProt P26718 1-216, looked up)
chain: MGWIRGRRSRHSWEMSEFHNYNLDLKKSDFSTRWQKQRCPVVKSKCRENASPFFFCCFIAVAMGIRFIIMVTIWSAVFLNSLFNQEVQIPLTESYCGPCPKNWICYKNNCYQFFDESKNWYESQASCMSQNASLLKVYSKEDQDLLKLVKSYHWMGLVHIPTNGSWQWEDGSILSPNLLTIIEMQKGDCALYASSFKGYIENCSTPNTYICMQRTV
notes: whole, on cells; On cells paired with DAP10 according to the description; also called KLRK1
Turning to B1, the binding result in data set [1] is “binds”.

B2: recombinant ERp5 (residues 1-421 of the mature protein), bacterially produced, N-terminal hexahistidine (protein)
chain: LYSSSDDVIELTPSNFNREVIQSDSLWLVEFYAPWCGHCQRLTPEWKKAATALKDVVKVGAVDADKHHSLGGQYGVQGFPTIKIFGSNKNRPEDYQGGRTGEAIVDAALSALRQLVKDRLGGRSGGYSSGKQGRSDSSSKKDVIELTDDSFDKNVLDSEDVWMVEFYAPWCGHCKNLEPEWAAAASEVKEQTKGKVKLAAVDATVNQVLASRYGIRGFPTIKIFQKGESPVDYDGGRTRSDIVSRALDLFSDNAPPPELLEIINEDIAKRTCEEHQLCVVAVLPHILDTGAAGRNSYLEVLLKLADKYKKKMWGWLWTEAGAQSELETALGIGGFGYPAMAAINARKMKFALLKGSFSEQGINEFLRELSFGRGSTAPVGGGAFPTIVEREPWDGRDGELPVEDDIDLSDVELDDLGKDEL
On to B2, for which the “disulfide bond reduction, non-reducing gel electrophoresis” value in data set [2] was “ERp5 did not affect unrelated proteins with relatively accessible intrachain (Siderocalin) or intrachain and interchain (CD94-NKG2A) disulfide bonds”. In the case of B3, the binding result in data set [3] is reported as “binds”.

B4: isolated MICA α3 domain (residues 187-274), expressed in bacteria (ligand)
chain: NVTRSEASEGNITVTCRASGFYPWNITLSWRQDGVSLSHDTQQWGDVLPDGNGTYQTWVATRICQGEEQRFTCYMEHSGNHSTHPVPS
notes: Numbering probably of the mature protein (Li et al., 1999); also called α3 membrane-proximal domain
Take B4: the binding result in data set [4] is “binds”.
